Holding throughout (assay): cell-based or functional assay
The target of assay [1] is CDC2/cyclin B complex (UniProt P06493 1-297).
The target in assay [2] is CDK2/cyclin A complex (UniProt P24941 1-298).
The target in assay [3] is CDK2/cyclin E complex (UniProt P24941 1-298).
Assay [4] addresses CDK4/cyclin D1 complex (UniProt P11802 1-303; P24385 1-295).

A value given as a limit tells only on which side of the number the result lay.

Sequence of CDK4/cyclin D1 complex (P11802 whole entry, chain 1 of 2): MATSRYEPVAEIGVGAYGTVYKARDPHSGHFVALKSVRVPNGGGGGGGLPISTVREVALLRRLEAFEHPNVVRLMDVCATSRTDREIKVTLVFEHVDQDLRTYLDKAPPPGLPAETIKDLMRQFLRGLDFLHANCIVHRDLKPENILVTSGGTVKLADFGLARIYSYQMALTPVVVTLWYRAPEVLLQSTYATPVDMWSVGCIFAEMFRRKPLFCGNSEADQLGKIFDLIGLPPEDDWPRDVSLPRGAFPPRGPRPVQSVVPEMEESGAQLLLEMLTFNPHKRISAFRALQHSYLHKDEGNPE
Sequence of CDK4/cyclin D1 complex (P24385 whole entry, chain 2 of 2): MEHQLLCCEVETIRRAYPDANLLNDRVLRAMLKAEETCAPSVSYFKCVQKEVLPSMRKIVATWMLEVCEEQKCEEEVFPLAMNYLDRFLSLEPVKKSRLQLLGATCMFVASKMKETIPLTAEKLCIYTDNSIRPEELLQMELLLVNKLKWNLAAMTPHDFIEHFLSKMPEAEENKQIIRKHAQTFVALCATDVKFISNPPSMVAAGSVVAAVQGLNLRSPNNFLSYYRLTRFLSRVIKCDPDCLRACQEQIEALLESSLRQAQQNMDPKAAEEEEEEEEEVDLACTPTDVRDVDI
Sequence of CDC2/cyclin B complex (P06493 whole entry, one chain of several): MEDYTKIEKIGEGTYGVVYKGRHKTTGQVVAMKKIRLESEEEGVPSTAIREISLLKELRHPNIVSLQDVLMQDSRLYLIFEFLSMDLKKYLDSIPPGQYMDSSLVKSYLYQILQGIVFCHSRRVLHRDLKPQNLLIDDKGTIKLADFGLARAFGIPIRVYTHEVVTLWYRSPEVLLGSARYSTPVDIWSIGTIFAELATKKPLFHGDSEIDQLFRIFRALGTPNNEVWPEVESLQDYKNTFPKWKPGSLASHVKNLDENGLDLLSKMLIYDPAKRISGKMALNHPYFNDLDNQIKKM

B1: human p16 (other)
chain: MEPAAGSSMEPSADWLATAAARGRVEEVRALLEAGALPNAPNSYGRRPIQVMMMGSARVAELLLLHGAEPNCADPATLTRPVHDAAREGFLDTLVVLHRAGARLDVRDAWGRLPVDLAEELGHRDVARYLRAAAGGTRGSNHARIDAAEGPSDIPD
As for B1, in assay [1], the “IC50, in vitro kinase activity (histone H1 phosphorylation)” value was > 500 nM. Moreover, the “IC50, in vitro kinase activity” value in assay [2] is > 500 nM. Also, the “IC50, in vitro kinase activity (GST-Rb phosphorylation)” value in assay [3] was > 500 nM; in assay [4], 250 nM.

The record behind these values is patent US6413943 (CELL GENESYS, dated 2002).
